Values belong to the substance of their own block, whether it stands above or below them.
Tests used:
[1] = target: GST-CDK4 (Sino Biological) (UniProt P11802); assay: microscale thermophoresis (MST), against linear MBP-P16p as reference
[2] = target: GST-CDK4 (Sino Biological) (UniProt P11802); assay: microscale thermophoresis (MST); Alexa Fluor 647-labelled MBP-cycP16p at 70 nM, GST-CDK4 titrated from 1.92 µM
[3] = target: CDK4 of MCF-7 cells (endogenous) (UniProt P11802); assay: cell-based or functional assay
α-synuclein = α-synuclein (Homo sapiens, UniProt P37840); conditions: in vitro and in vivo, Liang et al. 2021; cited from earlier work

Chain of cycRGD-mCh-cycP16p (bifunctional bicyclic protein) (P42771 83-103): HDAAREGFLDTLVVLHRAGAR
Chain of GST-CDK4 (Sino Biological) (P11802 whole entry): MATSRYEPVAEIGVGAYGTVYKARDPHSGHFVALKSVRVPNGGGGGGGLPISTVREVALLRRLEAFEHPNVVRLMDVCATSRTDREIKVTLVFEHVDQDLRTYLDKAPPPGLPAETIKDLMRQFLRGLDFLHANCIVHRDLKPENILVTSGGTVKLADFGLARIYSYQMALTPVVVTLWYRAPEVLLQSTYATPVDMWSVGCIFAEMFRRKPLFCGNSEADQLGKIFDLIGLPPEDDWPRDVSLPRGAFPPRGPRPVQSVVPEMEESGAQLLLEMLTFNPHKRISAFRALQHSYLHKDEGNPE

fold higher binding affinity compared to its linear counterpart MBP-P16p [1]: 4 fold
Kd [2]: 27.7 nM
Substance: MBP-cycP16p (cyclized MBP-P16p protein) (from UniProt P0AEX9 27-392; P42771 83-103)

percent of MCF-7 cells arrested at G0/G1 phase (flow cytometry, 15 µM, 24 h) [3]: 60.7%
Substance: R9-P16p (linear P16p fused to the poly-arginine cell penetrating sequence; Pepmic) (from UniProt P42771 84-103) (peptide)

percent of MCF-7 cells arrested at G0/G1 phase (flow cytometry, 15 µM, 24 h) [3]: 46.7%
Substance: cycRGD-mCh-P16p (cycRGD-mCherry bearing linear uncyclized P16p) (from UniProt P42771 83-103)

The next lines start with the substance.

Substance: SUMOmini2: earlier linear version of SUMO1 peptide (15-55), Liang et al.
inhibition of α-synuclein aggregation (α-synuclein): effectively inhibit α-synuclein aggregation in vitro and in vivo

Substance: cycRGD-mCh-cycP16p (bifunctional bicyclic protein) (from UniProt P42771 83-103)
percent of MCF-7 cells arrested at G0/G1 at 72 h (time course) [3]: 88%
percent of MCF-7 cells arrested at G0/G1 phase (flow cytometry, 15 µM, 24 h) [3]: 76.7%

— US20260275324A1, “UNNATURAL AMINO ACID IN CELLULO SYNTHESIS FOR SITE-SPECIFIC PROTEIN MODIFICATION” (The Chinese University of Hong Kong, priority 2023, published 2026)
